Measurements published in patent US20240352434, “COMPOSITIONS COMPRISING A VARIANT CAS12I3 POLYPEPTIDE AND USES THEREOF” (Arbor Biotechnologies, Inc., published 2024).
Where a chain is given by its changes, count along the chain named.

B1: EMX1_T5 crRNA ; EMX1_T5 target (ssRNA ; dsDNA)
RNA: AUAGUGUGUCCUUAGUUGACAUUAUUAUUCCCAUAGGGAAGG
DNA 1: TATTATTCCCATAGGGAAGG
DNA 2: CCTTCCCTATGGGAATAATA
B2: VEGFA_T2 crRNA ; VEGFA_T2 target (ssRNA ; dsDNA)
RNA: AUAGUGUGUCCUUAGUUGACAUAAUCCUCCACCAGUCAUGGU
DNA 1: AATCCTCCACCAGTCATGGT
DNA 2: ACCATGACTGGTGGAGGATT
B3: AAVS1_T3 crRNA ; AAVS1_T3 target (ssRNA ; dsDNA)
RNA: AUAGUGUGUCCUUAGUUGACAUGUGAGAAUGGUGCGUCCUAG
DNA 1: GTGAGAATGGTGCGTCCTAG
DNA 2: CTAGGACGCACCATTCTCAC

Target: T1, Cas12i3 N711R (Unidentified, N711R)
T1 chain: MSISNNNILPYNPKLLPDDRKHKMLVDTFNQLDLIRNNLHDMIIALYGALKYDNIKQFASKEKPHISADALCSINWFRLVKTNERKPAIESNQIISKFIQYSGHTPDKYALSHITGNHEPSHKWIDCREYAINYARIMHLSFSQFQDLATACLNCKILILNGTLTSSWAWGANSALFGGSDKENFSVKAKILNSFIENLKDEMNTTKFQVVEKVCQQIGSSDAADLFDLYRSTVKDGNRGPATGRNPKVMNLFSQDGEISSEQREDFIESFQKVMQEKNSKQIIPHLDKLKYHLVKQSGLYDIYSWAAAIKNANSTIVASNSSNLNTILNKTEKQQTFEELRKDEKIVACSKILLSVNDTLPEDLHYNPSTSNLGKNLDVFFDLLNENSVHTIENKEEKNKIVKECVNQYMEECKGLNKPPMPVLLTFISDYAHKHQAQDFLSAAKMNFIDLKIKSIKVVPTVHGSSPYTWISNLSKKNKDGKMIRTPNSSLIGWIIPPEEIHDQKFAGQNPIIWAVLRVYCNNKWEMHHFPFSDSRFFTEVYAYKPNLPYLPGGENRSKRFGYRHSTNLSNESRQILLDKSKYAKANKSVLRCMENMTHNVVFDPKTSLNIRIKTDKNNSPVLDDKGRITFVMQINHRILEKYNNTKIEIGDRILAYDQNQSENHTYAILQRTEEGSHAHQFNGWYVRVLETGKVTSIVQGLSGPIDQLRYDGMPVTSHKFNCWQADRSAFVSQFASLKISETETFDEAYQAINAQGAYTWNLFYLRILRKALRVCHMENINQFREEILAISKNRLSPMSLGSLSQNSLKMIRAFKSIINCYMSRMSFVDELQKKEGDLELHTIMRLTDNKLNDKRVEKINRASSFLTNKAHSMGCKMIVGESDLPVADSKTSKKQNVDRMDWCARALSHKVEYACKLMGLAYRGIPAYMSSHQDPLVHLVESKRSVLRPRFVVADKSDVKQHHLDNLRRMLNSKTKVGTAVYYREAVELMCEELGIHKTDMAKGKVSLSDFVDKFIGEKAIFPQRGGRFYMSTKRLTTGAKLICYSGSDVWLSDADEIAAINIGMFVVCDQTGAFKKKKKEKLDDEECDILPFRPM
Assay: cell_activity; fold change in % indels, HEK293T; PAM not stated in example
How it was run: (§1)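 HEK293T cells lipofected with Lipofectamine 2000 (crRNA omitted in negative controls). Harvested 72 h post-transfection and lysed in QuickExtract. Target loci amplified by two-round PCR and sequenced on NextSeq (150 cycles) to quantify % indels.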

In order of rising binding signal:
1. B1  1.56 fold of wild-type
2. B2  2.17 fold of wild-type
3. B3  2.79 fold of wild-type

Target: T2, Cas12i3 S536R K583R N711R C724R (Unidentified, S536R,K583R,N711R,C724R)
T2 chain: T1 chain with S536R, K583R, C724R
Assay: as above
How it was run: as §1

In order of falling binding signal:
1. B2  1.1 fold of wild-type
2. B3  0.8 fold of wild-type
3. B1  0.72 fold of wild-type
